For this assay, the target named is T1, C-reactive protein human, recombinant (human), P02741.
T1 chain: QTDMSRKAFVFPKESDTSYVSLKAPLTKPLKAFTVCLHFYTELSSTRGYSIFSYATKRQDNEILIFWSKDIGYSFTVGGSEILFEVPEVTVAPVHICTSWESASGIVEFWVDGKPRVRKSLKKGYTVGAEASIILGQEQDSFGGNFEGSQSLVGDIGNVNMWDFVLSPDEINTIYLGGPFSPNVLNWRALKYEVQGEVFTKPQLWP
The experiment in a line: native MS. Particulars: remark: other sources report otherwise.

B1: C-reactive protein human, recombinant, P02741 19-224 (natural protein)
chain: T1 chain
As for B1, the stoichiometry N is 5.

In general, stoichiometry N refers to the number of molecules, sites or subunits per partner or assembly.

These data come from paper PMC7203678.
